{
  "source": "patent US20110318348A1",
  "about": "(NATIONAL RESEARCH COUNCIL OF CANADA, published 2011)",
  "binders": {"B1": {"name": "sdAb BSA12 (VHH, part only)", "VHH": "QVKLEESGGGLVQVGDSLRLSCAASGRTFSNYTMAWFRQFPGKEREFVAVVSRGGGATDYADSVKGRFTISRDNAKNTMYLQMNSLKTDTAVYYCAAGTDLSYYYSTKKWAYWGQGTQVTVSS", "modifications": "c-Myc and 6xHis tags"}, "B2": {"name": "sdAb BSA16 (VHH)", "VHH": "QVKLEESGGGLVQAGGSLRLSCAPSGRTFRTWRMGWFRQAPGKEREFVAAINLNTGNTYYVDSVKGRFTISGDYAKNTLYLQMNSLKPEDTAVYFCAARSPDSDYVPLSSIDYQYWGQGTQVTVSS"}, "B3": {"name": "sdAb BSA8 (VHH)", "VHH": "QVKLEESGGGLAQAGGSLRLSCAASERTFIRYTIGWFRQAPGKEREFVGRVNWSGGDTYYADSVKGRFTISRDNAKTTVTLQMSSLKPEDTAVYSCAASPKWSEIPREYIYWGPGTQVTVSS"}},
  "key": {"bovine serum albumin [1]": {"target": "T1, bovine serum albumin (bovine, UniProt P02769 25-607)", "T1 construct": "also called BSA", "T1 sequence (P02769 25-607 limits assumed)": "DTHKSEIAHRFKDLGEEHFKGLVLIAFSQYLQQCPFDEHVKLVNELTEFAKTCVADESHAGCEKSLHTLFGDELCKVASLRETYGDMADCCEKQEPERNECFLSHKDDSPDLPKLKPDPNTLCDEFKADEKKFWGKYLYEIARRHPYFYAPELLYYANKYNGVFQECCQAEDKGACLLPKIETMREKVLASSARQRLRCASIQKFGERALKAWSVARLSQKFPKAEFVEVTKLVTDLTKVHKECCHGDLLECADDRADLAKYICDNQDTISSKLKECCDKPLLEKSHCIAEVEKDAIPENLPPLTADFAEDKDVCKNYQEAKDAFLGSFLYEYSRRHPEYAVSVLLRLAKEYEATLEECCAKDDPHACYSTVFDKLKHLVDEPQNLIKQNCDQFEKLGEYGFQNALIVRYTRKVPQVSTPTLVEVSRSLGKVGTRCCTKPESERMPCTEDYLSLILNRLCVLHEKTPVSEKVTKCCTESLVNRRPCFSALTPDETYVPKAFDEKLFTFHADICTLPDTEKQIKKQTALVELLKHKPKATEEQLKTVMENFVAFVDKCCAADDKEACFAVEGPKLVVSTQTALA", "experiment": "SPR (Biacore 3000), BSA immobilized on CM5, calculated from ka and kd"}, "bovine serum albumin [2]": {"target": "T1, bovine serum albumin", "experiment": "SPR (Biacore 3000), BSA immobilized on CM5"}, "bovine serum albumin [3]": {"target": "T1, bovine serum albumin", "experiment": "SPR (Biacore 3000), BSA immobilized on CM5, extended dissociation"}, "bovine serum albumin [4]": {"target": "T1, bovine serum albumin", "experiment": "SPR (Biacore 3000), BSA immobilized on CM5, 1:1 model; SE 3.2 × 10^3 in r12c3"}, "bovine serum albumin [5]": {"target": "T1, bovine serum albumin", "experiment": "SPR (Biacore 3000), BSA immobilized on CM5, 4 h dissociation time; SE 3 × 10^-8 in r12c4"}, "bovine serum albumin [6]": {"target": "T1, bovine serum albumin", "experiment": "SPR (Biacore 3000), BSA immobilized on CM5, 1:1 model; SE 5.4 × 10^-3 in r14c4", "description": "(§1) 1700 RUs of BSA (Sigma) were immobilized on research grade CM5-sensorchip (BIACORE). Ethanolamine blocked surface was used as a reference. Immobilizations were carried out at the protein concentrations of 50 μg/ml in 10 mM acetate pH4.5 using amine coupling kit supplied by the manufacturer. Antibodies were passed through Superdex 75 (GE Healthcare) column to separate monomer prior to BIACORE analysis.\n(§2) In all instances, analyses were carried out at 25° C. in HBS-E buffer (10 mM HEPES, 150 mM NaCl and 3 mM EDTA, pH7.4) supplemented with 0.005% surfactant P20 at a flow rate of 20 ul/min. The surfaces were regenerated with 100 mM HCl (3 seconds). Data were analyzed with BIAevaluation 4.1 software."}, "bovine serum albumin [7]": {"target": "T1, bovine serum albumin", "experiment": "SPR (Biacore 3000), BSA immobilized on CM5, 1:1 model; SE 2.2 × 10^4 in r14c3", "description": "as §1, §2"}, "bovine serum albumin [8]": {"target": "T1, bovine serum albumin", "experiment": "SPR (Biacore 3000), BSA immobilized on CM5, 1:1 model; SE 1.1 × 10^-8 in r14c5", "description": "as §1, §2"}, "bovine serum albumin [9]": {"target": "T1, bovine serum albumin", "experiment": "SPR (Biacore 3000), BSA immobilized on CM5; profiles did not fit a 1:1 model", "description": "as §1, §2"}, "bovine serum albumin [10]": {"target": "T1, bovine serum albumin", "experiment": "SPR (Biacore 3000), BSA immobilized on CM5; estimated, no 1:1 fit", "description": "as §1, §2"}},
  "data": [
    {"binder": "B1", "values": [
      {"measurement": "Kd", "setting": "bovine serum albumin [1]", "value": 0.004, "unit": "nM"},
      {"measurement": "binding capacity (RU)", "setting": "bovine serum albumin [2]", "value": 150, "unit": "RU"},
      {"measurement": "koff", "setting": "bovine serum albumin [3]", "value": "1e-05", "unit": "s⁻¹"},
      {"measurement": "kon", "setting": "bovine serum albumin [4]", "value": "2.5e+06", "unit": "M⁻¹ s⁻¹"},
      {"measurement": "koff", "setting": "bovine serum albumin [5]", "value": "9e-06", "unit": "s⁻¹"}
    ]},
    {"binder": "B2", "values": [
      {"measurement": "koff", "setting": "bovine serum albumin [6]", "value": 0.27, "unit": "s⁻¹"},
      {"measurement": "kon", "setting": "bovine serum albumin [7]", "value": "1e+06", "unit": "M⁻¹ s⁻¹"},
      {"measurement": "Kd", "setting": "bovine serum albumin [8]", "value": 280, "unit": "nM"}
    ]},
    {"binder": "B3", "values": [
      {"measurement": "koff", "setting": "bovine serum albumin [9]", "value": 0.005, "unit": "s⁻¹"},
      {"measurement": "Kd", "setting": "bovine serum albumin [10]", "value": "~100", "unit": "nM"}
    ]}
  ]
}
